Experimental findings from WO2002020615A2 are described below.

The target of assay [1] is human chemokine receptor 5 (CCR5) (human) (UniProt P51681). Put plainly: cell-based or functional assay.
The target of another assay is murine CCR5 (murine) (UniProt P51682). Briefly: cell-based or functional assay.
UniProt P51682, sequence (P51682 whole entry): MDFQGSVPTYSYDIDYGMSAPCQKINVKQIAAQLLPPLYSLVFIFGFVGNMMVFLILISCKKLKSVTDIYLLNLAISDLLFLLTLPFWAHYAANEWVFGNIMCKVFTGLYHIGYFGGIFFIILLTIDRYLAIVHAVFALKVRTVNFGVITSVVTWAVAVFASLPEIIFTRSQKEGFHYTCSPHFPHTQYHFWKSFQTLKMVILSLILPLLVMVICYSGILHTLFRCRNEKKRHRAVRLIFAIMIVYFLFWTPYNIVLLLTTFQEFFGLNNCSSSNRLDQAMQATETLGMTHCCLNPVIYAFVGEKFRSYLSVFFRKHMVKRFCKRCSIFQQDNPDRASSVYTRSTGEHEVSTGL

With “chemokine-toxin fusion protein RANTES-PE38”, in assay [1], the cytotoxicity on CCR5 positive CHO cells (48 h): concentration of complete destruction stood at 2 nM and the cytotoxicity on CHO cells expressing human CCR5 (40 h): concentration of complete killing is 10 nM. This substance registered a cytotoxicity on CHO cells expressing murine CCR5 (40 h, light microscopy) with murine CCR5 (murine) of 10 nM.
